Source: PMC7948726

Target: 14-3-3β (UniProt P31946)
Experiment: anti-FLAG co-IP, anti-HA blot
Conditions: reference: FLAG-DYRK1A wild type; sites S529

## DYRK1A (from UniProt Q63470) FLAG-DYRK1A-S529A
  binding against the reference: weaker
